Experimental data reported in patent US20250134019A1, “TRIKETONE DIOXYGENASE VARIANTS FOR HERBICIDE TOLERANCE” (Monsanto Technology LLC, priority 2022, published 2025).

How the values were obtained:
[1] = Enzyme activity (Kcat/Km) for hydroxylation of mesotrione at room temperature; type: biochemical; details: Round 2 high-throughput screens
Procedure: The enzyme activity was expressed as Kcat/Km, M-1 sec-1. […] The enzyme activity was measured at room temperature for the hydroxylation of mesotrione, and was defined as Kcat/Km, M-1 sec-1 (specificity constant). Of these variants, four were tested in soybean plants. […] TDO activity was measured by the second hydroxylation of mesotrione. For routine activity measurements of TDO and determining the kinetic properties of the second hydroxylation, the continuous change in […], which is specific to the second hydroxylation and subsequent non-enzymatic water removal (i.e. the conversion of hydroxy-mesotrione to oxy-mesotrione), was monitored. […] The reaction proceeded until the maximum […] was obtained (usually 20-120 minutes depending upon the concentration of mesotrione) and the linear portion of the curve was determined by visual inspection. […] The reaction mixtures were analyzed by HPLC and mass spectrophotometry. By product conversation followed by peak integration on HPLC, a linear plot was obtained and the extinction co-efficient delta between the substrate (mesotrione) and the second product (oxy-mesotrione) was obtained according to the equation […]=(εp-εs)*bΔp where […] is the change of absorbance at 330 nm and b is the light path.

[2] = test system: transgenic soybean plants; assay: Response of R0 soybean plants transformed with Round 2 TDO variants to mesotrione; type: in vivo; details: R0 transgenic soybean sprayed with mesotrione
Excerpt: The next set of experiments was focused on determining if the balance between improved enzyme stability could outweigh a reduction in activity observed at optimal temperatures in soybean plants. […] To test this hypothesis, the eight variants from Round 2 biochemical analysis described in the preceding paragraph were transformed into soybean through Agrobacterium-mediated transformation, along with three controls. One of the controls (TDO_9) was a variant from the high-throughput screens that had poor activity. Two other controls were the D08 variant and the Os.TDO. R0 transgenic soybean plants were sprayed with the mesotrione herbicide to screen for herbicide tolerance. […] These included the Os.TDO control, the D08 variant and one Round 2 variant. The plants were scored for percent injury as described in the previous examples.

activity in high-throughput screens [1]: poor activity
B1: TDO_9: Os.TDO variant, SEQ ID NO:44, F199L-K279R relative to D08; control with poor activity (protein)
chain: MADESWRAPALVQELAAKGVEEPPSRYLLREQDRPDVKLVAAELPEPIPVVDLGRLDGAEEATKLRVALQNWGFFLLTNHGIEASLMDDVMNLSREFFNQPIERKQKFSNLIDGKHFQIEGYGTDRVVTQDQVLDWSDRLHLRVEPKEEQDLAFWPDHPESFRDVLHKYASGCKRIRDDIIQAMAKLLELDEDYFLDRLNEAPTFARFNYYPPCPRPDLVFGIRPHSDGGLLTILLVDKDVGGLQVQRDGKWSNVPATPHTLLINLGDTMEVMSNGIFRSPVHRVVTNAEKERISLAMLYSVNDEKDIEPAAGLLDENRPARYRKVSVEEFRAGIFGKFSRGERYIDSLRI
modifications: TDO variant sequence
R0 % Injury [2]: 36%
